Where two headings read alike, the source gives them in different places.
How the values were obtained:
Format in all cases: binding
[1] = tested on: SARS-CoV-2 gRNA and sgRNAs; conditions: for target (unweighted spectral count in RNP capture): Probe II capture, LC-MS/MS LFQ; for background (unweighted spectral count in control): no-probe control pull-down, used as background for Probe II; for target (unweighted spectral count of the protein in the RNP capture experiment): LC-MS/MS label-free quantification, probe pool not given; for back-ground (unweighted spectral count of the protein in the control experiment): protein background of the control (e.g. no-probe) experiment
SARS-CoV-2 gRNA = conditions: for target (unweighted spectral count of the protein in the RNP capture): LC-MS/MS, Probe I sample (first 199 lines of Table 2)
HCoV-OC43 gRNA and sgRNA = conditions: for target (unweighted spectral count, OC43 Probe II capture) / target (unweighted spectral count): tested against no-probe control; for target (unweighted spectral count, OC43 Probe II capture): FDR<10%; for target (unweighted spectral count, OC43 Probe II) / background (unweighted spectral count, no-probe control): type n_48_v, 48 hpi; for target (unweighted spectral count, OC43 Probe II): OC43 Probe II capture on infected cells; for background (unweighted spectral count, no-probe control): no-probe control on infected cells; for target (unweighted spectral count): OC43 Probe II, infected cells

Molecule | target (unweighted spectral count in RNP capture) [1] | background (unweighted spectral count in control) [1] | target (unweighted spectral count of the protein in the RNP capture) (SARS-CoV-2 gRNA; […]) | target (unweighted spectral count of the protein in the RNP capture experiment) [1] | back-ground (unweighted spectral count of the protein in the control experiment) [1] | also measured
PABPN1 (protein, UniProt Q86U42 2-306, looked up) Polyadenylate-binding protein …: AAAAAAAAAAGAAGGRGSGPGRRRHLVPGAGGEAGEGAPGGAGDYGNGLESEELEPEELLLEPEPEPEPEEEPPRPRAPPGAPGPGPGSGAPGSQEEEEEPGLVEGDPGDGAIEDPELEAIKARVREMEEEAEKLKELQNEVEKQMNMSPPPGNAGPVIMSIEEKMEADARSIYVGNVDYGATAEELEAHFHGCGSVNRVTILCDKFSGHPKGFAYIEFSDKESVRTSLALDESLFRGRQIKVIPKRTNRPGISTTDRGFPRARYRARTTNYNSSRSRFYSGFNSRPRGRVYRGRARATSWYSPY | 11 | 1 | 12 |  |  | target (unweighted spectral count, OC43 Probe II capture) (HCoV-OC43 gRNA and sgRNA; 24 hpi, type n_24_v): 5; target (unweighted spectral count, OC43 Probe II) (HCoV-OC43 gRNA and sgRNA): 8; background (unweighted spectral count, no-probe control) (HCoV-OC43 gRNA and sgRNA): 2
ATXN2L: host protein, UniProt Q8WWM7 (protein, UniProt Q8WWM7 1-1075, looked up) Ataxin-2-like protein: MLKPQPLQQPSQPQQPPPTQQAVARRPPGGTSPPNGGLPGPLATSAAPPGPPAAASPCLGPVAAAGSGLRRGAEGILAPQPPPPQQHQERPGAAAIGSARGQSTGKGPPQSPVFEGVYNNSRMLHFLTAVVGSTCDVKVKNGTTYEGIFKTLSSKFELAVDAVHRKASEPAGGPRREDIVDTMVFKPSDVMLVHFRNVDFNYATKDKFTDSAIAMNSKVNGEHKEKVLQRWEGGDSNSDDYDLESDMSNGWDPNEMFKFNEENYGVKTTYDSSLSSYTVPLEKDNSEEFRQRELRAAQLAREIESSPQYRLRIAMENDDGRTEEEKHSAVQRQGSGRESPSLASREGKYIPLPQRVREGPRGGVRCSSSRGGRPGLSSLPPRGPHHLDNSSPGPGSEARGINGGPSRMSPKAQRPLRGAKTLSSPSNRPSGETSVPPPPAVGRMYPPRSPKSAAPAPISASCPEPPIGSAVPTSSASIPVTSSVSDPGVGSISPASPKISLAPTDVKELSTKEPGRTLEPQELARIAGKVPGLQNEQKRFQLEELRKFGAQFKLQPSSSPENSLDPFPPRILKEEPKGKEKEVDGLLTSEPMGSPVSSKTESVSDKEDKPPLAPSGGTEGPEQPPPPCPSQTGSPPVGLIKGEDKDEGPVAEQVKKSTLNPNAKEFNPTKPLLSVNKSTSTPTSPGPRTHSTPSIPVLTAGQSGLYSPQYISYIPQIHMGPAVQAPQMYPYPVSNSVPGQQGKYRGAKGSLPPQRSDQHQPASAPPMMQAAAAAGPPLVAATPYSSYIPYNPQQFPGQPAMMQPMAHYPSQPVFAPMLQSNPRMLTSGSHPQAIVSSSTPQYPSAEQPTPQALYATVHQSYPHHATQLHAHQPQPATTPTGSQPQSQHAAPSPVQHQAGQAPHLGSGQPQQNLYHPGALTGTPPSLPPGPSAQSPQSSFPQPAAVYAIHHQQLPHGFTNMAHVTQAHVQTGITAAPPPHPGAPHPPQVMLLHPPQSHGGPPQGAVPQSGVPALSASTPSPYPYIGHPQGEQPGQAPGFPGGADDRIREFSLAGGIWHGRAEGLQVGQDARVLGGE | 28 | 1 | 9 |  |  | target (unweighted spectral count, OC43 Probe II capture) (HCoV-OC43 gRNA and sgRNA; 36 hpi, type n_36_v): 10; target (unweighted spectral count) (HCoV-OC43 gRNA and sgRNA; 12 hpi (type n_12_v)): 4; target (unweighted spectral count) (HCoV-OC43 gRNA and sgRNA; 24 hpi (type n_24_v)): 6; target (unweighted spectral count, OC43 Probe II) (HCoV-OC43 gRNA and sgRNA): 12; background (unweighted spectral count, no-probe control) (HCoV-OC43 gRNA and sgRNA): 1; target (spectral count) (HCoV-OC43 gRNA and sgRNA; type s_36_m, HCoV-OC43-infected HCT-8 cells, 36 hpi, Probe II): 10; background (spectral count) (HCoV-OC43 gRNA and sgRNA; type s_36_m, uninfected-probe control, 36 hpi, Probe II): 1
SRSF2 (protein, UniProt Q01130 2-221, looked up) Serine/arginine-rich splicing …: SYGRPPPDVEGMTSLKVDNLTYRTSPDTLRRVFEKYGRVGDVYIPRDRYTKESRGFAFVRFHDKRDAEDAMDAMDGAVLDGRELRVQMARYGRPPDSHHSRRGPPPRRYGGGGYGRRSRSPRRRRRSRSRSRSRSRSRSRSRYSRSKSRSRTRSRSRSTSKSRSARRSKSKSSSVSRSRSRSRSRSRSRSPPPVSKRESKSRSRSKSPPKSPEEEGAVSS |  |  | 12 | 11 | 2 | 
PA2G4 (protein, UniProt Q9UQ80 2-394, looked up) Proliferation-associated …: SGEDEQQEQTIAEDLVVTKYKMGGDIANRVLRSLVEASSSGVSVLSLCEKGDAMIMEETGKIFKKEKEMKKGIAFPTSISVNNCVCHFSPLKSDQDYILKEGDLVKIDLGVHVDGFIANVAHTFVVDVAQGTQVTGRKADVIKAAHLCAEAALRLVKPGNQNTQVTEAWNKVAHSFNCTPIEGMLSHQLKQHVIDGEKTIIQNPTDQQKKDHEKAEFEVHEVYAVDVLVSSGEGKAKDAGQRTTIYKRDPSKQYGLKMKTSRAFFSEVERRFDAMPFTLRAFEDEKKARMGVVECAKHELLQPFNVLYEKEGEFVAQFKFTVLLMPNGPMRITSGPFEPDLYKSEMEVQDAELKALLQSSASRKTQKKKKKKASKTAENATSGETLEENEAGD |  |  | 7 | 5 | 1 | 
MBNL2 (protein, UniProt Q5VZF2 1-373, looked up) Muscleblind-like protein 2: MALNVAPVRDTKWLTLEVCRQFQRGTCSRSDEECKFAHPPKSCQVENGRVIACFDSLKGRCSRENCKYLHPPTHLKTQLEINGRNNLIQQKTAAAMLAQQMQFMFPGTPLHPVPTFPVGPAIGTNTAISFAPYLAPVTPGVGLVPTEILPTTPVIVPGSPPVTVPGSTATQKLLRTDKLEVCREFQRGNCARGETDCRFAHPADSTMIDTSDNTVTVCMDYIKGRCMREKCKYFHPPAHLQAKIKAAQHQANQAAVAAQAAAAAATVMAFPPGALHPLPKRQALEKSNGTSAVFNPSVLHYQQALTSAQLQQHAAFIPTGSVLCMTPATSIDNSEIISRNGMECQESALRITKHCYCTYYPVSSSIELPQTAC | 7 | 1 | 7 |  |  | 
PPP1CB (protein, UniProt P62140 2-327, looked up) Serine/threonine-protein …: ADGELNVDSLITRLLEVRGCRPGKIVQMTEAEVRGLCIKSREIFLSQPILLELEAPLKICGDIHGQYTDLLRLFEYGGFPPEANYLFLGDYVDRGKQSLETICLLLAYKIKYPENFFLLRGNHECASINRIYGFYDECKRRFNIKLWKTFTDCFNCLPIAAIVDEKIFCCHGGLSPDLQSMEQIRRIMRPTDVPDTGLLCDLLWSDPDKDVQGWGENDRGVSFTFGADVVSKFLNRHDLDLICRAHQVVEDGYEFFAKRQLVTLFSAPNYCGEFDNAGGMMSVDETLMCSFQILKPSEKKAKYQYGGLNSGRPVTPPRTANPPKKR | 24 | 4 | 17 |  |  | 
TRA2A (protein, UniProt Q13595 2-282, looked up) Transformer-2 protein homolog …: SDVEENNFEGRESRSQSKSPTGTPARVKSESRSGSRSPSRVSKHSESHSRSRSKSRSRSRRHSHRRYTRSRSHSHSHRRRSRSRSYTPEYRRRRSRSHSPMSNRRRHTGSRANPDPNTCLGVFGLSLYTTERDLREVFSRYGPLSGVNVVYDQRTGRSRGFAFVYFERIDDSKEAMERANGMELDGRRIRVDYSITKRAHTPTPGIYMGRPTHSGGGGGGGGGGGGGGGGRRRDSYYDRGYDRGYDRYEDYDYRYRRRSPSPYYSRYRSRSRSRSYSPRRY | 7 | 1 | 6 |  |  | 
HNRNPA1L2 (protein, UniProt Q32P51 1-320, looked up) Heterogeneous nuclear …: MSKSASPKEPEQLRKLFIGGLSFETTDESLRSHFEQWGTLTDCVVMRDPNTKRSRGFGFVTYATVEEVDAAMNTTPHKVDGRVVEPKRAVSREDSQRPGAHLTVKKIFVGGIKEDTEEHHLRDYFEQYGKIEVIEIMTDRGSGKKRGFAFVTFDDHDSVDKIVIQKYHTVKGHNCEVRKALPKQEMASASSSQRGRRGSGNFGGGRGDGFGGNDNFGRGGNFSGRGGFGGSCGGGGYGGSGDGYNGFGNDGSNFGGGGSYNDFGNYNNQSSNFGPMKGGNFGGRSSGPYGGGGQYFAKPQNQGGYGVSSSSSSYGSGRRF | 8 | 1 | 6 |  |  | 
PGK2 (protein, UniProt P07205 2-417, looked up) Phosphoglycerate kinase 2: SLSKKLTLDKLDVRGKRVIMRVDFNVPMKKNQITNNQRIKASIPSIKYCLDNGAKAVVLMSHLGRPDGVPMPDKYSLAPVAVELKSLLGKDVLFLKDCVGAEVEKACANPAPGSVILLENLRFHVEEEGKGQDPSGKKIKAEPDKIEAFRASLSKLGDVYVNDAFGTAHRAHSSMVGVNLPHKASGFLMKKELDYFAKALENPVRPFLAILGGAKVADKIQLIKNMLDKVNEMIIGGGMAYTFLKVLNNMEIGASLFDEEGAKIVKDIMAKAQKNGVRITFPVDFVTGDKFDENAQVGKATVASGISPGWMGLDCGPESNKNHAQVVAQARLIVWNGPLGVFEWDAFAKGTKALMDEIVKATSKGCITVIGGGDTATCCAKWNTEDKVSHVSTGGGASLELLEGKILPGVEALSNM |  |  |  | 5 | 1 | target (unweighted spectral count in RNP capture) (SARS-CoV-2 gRNA; Probe I capture, […], LC-MS/MS LFQ): 5; background (unweighted spectral count in control) (SARS-CoV-2 gRNA; no-probe control pull-down, used as background for Probe I): 1
MYEF2 (protein, UniProt Q9P2K5 1-600, looked up) Myelin expression factor 2: MADANKAEVPGATGGDSPHLQPAEPPGEPRREPHPAEAEKQQPQHSSSSNGVKMENDESAKEEKSDLKEKSTGSKKANRFHPYSKDKNSGAGEKKGPNRNRVFISNIPYDMKWQAIKDLMREKVGEVTYVELFKDAEGKSRGCGVVEFKDEEFVKKALETMNKYDLSGRPLNIKEDPDGENARRALQRTGGSFPGGHVPDMGSGLMNLPPSILNNPNIPPEVISNLQAGRLGSTIFVANLDFKVGWKKLKEVFSIAGTVKRADIKEDKDGKSRGMGTVTFEQAIEAVQAISMFNGQFLFDRPMHVKMDDKSVPHEEYRSHDGKTPQLPRGLGGIGMGLGPGGQPISASQLNIGGVMGNLGPGGMGMDGPGFGGMNRIGGGIGFGGLEAMNSMGGFGGVGRMGELYRGAMTSSMERDFGRGDIGINQGFGDSFGRLGSAMIGGFAGRIGSSNMGPVGSGISGGMGSMNSVTGGMGMGLDRMSSSFDRMGPGIGAILERSIDMDRGFLSGPMGSGMRERIGSKGNQIFVRNLPFDLTWQKLKEKFSQCGHVMFAEIKMENGKSKGCGTVRFDSPESAEKACRIMNGIKISGREIDVRLDRNA |  | 1 | 19 |  |  | 
